Blank lines part the entries; values can stand above or below the binder they belong to. *1 amine or outer side, *2 acyl side, *3 side chain or, on linkers, in order; H or OH if unused. Side-chain parts run from the residue outwards. The star is where a group is joined. C18 diacid = O=C(O)CCCCCCCCCCCCCCCCC(=O)*; γGlu = O=C(O)[C@H](CCC(=O)[*:2])N[*:1]; Isovaleryl = CC(C)CC(=O)*; AEEA = NCCOCCOCC(=O)O
Biological target: T1, human neuropeptide Y2 receptor (human, UniProt P49146 1-381)
T1 construct: whole, on cells; also called hNPY2 receptor; hNPY2-R
T1 sequence (looked up): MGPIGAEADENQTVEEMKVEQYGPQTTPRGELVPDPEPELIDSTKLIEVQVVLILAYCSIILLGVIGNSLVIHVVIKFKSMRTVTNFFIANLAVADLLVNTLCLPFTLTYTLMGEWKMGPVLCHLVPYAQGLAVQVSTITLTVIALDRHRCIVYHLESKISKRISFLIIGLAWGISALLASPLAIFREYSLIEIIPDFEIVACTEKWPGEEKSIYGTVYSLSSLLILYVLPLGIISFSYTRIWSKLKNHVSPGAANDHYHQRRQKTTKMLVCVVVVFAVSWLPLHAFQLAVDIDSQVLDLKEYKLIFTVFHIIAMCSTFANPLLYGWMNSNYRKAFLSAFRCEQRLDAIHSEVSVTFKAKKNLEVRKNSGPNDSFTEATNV
Test: radioligand competition (125I-PYY(1-36)), hNPY2R membranes
In short: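 Commercial human Y2 receptor membranes (0.5 μg protein/well) were incubated with peptide for 2 h at room temperature in 50 mM HEPES, 5 mM MgCl₂, 1 mM CaCl₂, pH 7.4, with 0.2% ovalbumin. Bound radioligand was separated on PEI-soaked GF/C filters and counted by scintillation, and IC₅₀ came from nonlinear sigmoidal regression.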

B2: Compound 135 (peptide)
peptide: Isovaleryl-APEK([AEEA-AEEA-γGlu-C18 diacid])PEADASPEELQRYYVELRHYYNWLTRQRY-NH2
SMILES: CC(C)CC(=O)N[C@@H](C)C(=O)N1CCC[C@H]1C(=O)N[C@@H](CCC(=O)O)C(=O)N[C@@H](CCCCNC(=O)COCCOCCNC(=O)COCCOCCNC(=O)CC[C@H](NC(=O)CCCCCCCCCCCCCCCCC(=O)O)C(=O)O)C(=O)N1CCC[C@H]1C(=O)N[C@@H](CCC(=O)O)C(=O)N[C@@H](C)C(=O)N[C@@H](CC(=O)O)C(=O)N[C@@H](C)C(=O)N[C@@H](CO)C(=O)N1CCC[C@H]1C(=O)N[C@@H](CCC(=O)O)C(=O)N[C@@H](CCC(=O)O)C(=O)N[C@@H](CC(C)C)C(=O)N[C@@H](CCC(N)=O)C(=O)N[C@@H](CCCNC(=N)N)C(=O)N[C@@H](Cc1ccc(O)cc1)C(=O)N[C@@H](Cc1ccc(O)cc1)C(=O)N[C@H](C(=O)N[C@@H](CCC(=O)O)C(=O)N[C@@H](CC(C)C)C(=O)N[C@@H](CCCNC(=N)N)C(=O)N[C@@H](Cc1c[nH]cn1)C(=O)N[C@@H](Cc1ccc(O)cc1)C(=O)N[C@@H](Cc1ccc(O)cc1)C(=O)N[C@@H](CC(N)=O)C(=O)N[C@@H](Cc1c[nH]c2ccccc12)C(=O)N[C@@H](CC(C)C)C(=O)N[C@H](C(=O)N[C@@H](CCCNC(=N)N)C(=O)N[C@@H](CCC(N)=O)C(=O)N[C@@H](CCCNC(=N)N)C(=O)N[C@@H](Cc1ccc(O)cc1)C(N)=O)[C@@H](C)O)C(C)C
- Ki: 1.31 nM

B3: Compound 139 (peptide)
peptide: Isovaleryl-APEK([AEEA-AEEA-γGlu-C18 diacid])PEEESSPEELQRYYVSLRHYYNWLTRQRY-NH2
SMILES: CC(C)CC(=O)N[C@@H](C)C(=O)N1CCC[C@H]1C(=O)N[C@@H](CCC(=O)O)C(=O)N[C@@H](CCCCNC(=O)COCCOCCNC(=O)COCCOCCNC(=O)CC[C@H](NC(=O)CCCCCCCCCCCCCCCCC(=O)O)C(=O)O)C(=O)N1CCC[C@H]1C(=O)N[C@@H](CCC(=O)O)C(=O)N[C@@H](CCC(=O)O)C(=O)N[C@@H](CCC(=O)O)C(=O)N[C@@H](CO)C(=O)N[C@@H](CO)C(=O)N1CCC[C@H]1C(=O)N[C@@H](CCC(=O)O)C(=O)N[C@@H](CCC(=O)O)C(=O)N[C@@H](CC(C)C)C(=O)N[C@@H](CCC(N)=O)C(=O)N[C@@H](CCCNC(=N)N)C(=O)N[C@@H](Cc1ccc(O)cc1)C(=O)N[C@@H](Cc1ccc(O)cc1)C(=O)N[C@H](C(=O)N[C@@H](CO)C(=O)N[C@@H](CC(C)C)C(=O)N[C@@H](CCCNC(=N)N)C(=O)N[C@@H](Cc1c[nH]cn1)C(=O)N[C@@H](Cc1ccc(O)cc1)C(=O)N[C@@H](Cc1ccc(O)cc1)C(=O)N[C@@H](CC(N)=O)C(=O)N[C@@H](Cc1c[nH]c2ccccc12)C(=O)N[C@@H](CC(C)C)C(=O)N[C@H](C(=O)N[C@@H](CCCNC(=N)N)C(=O)N[C@@H](CCC(N)=O)C(=O)N[C@@H](CCCNC(=N)N)C(=O)N[C@@H](Cc1ccc(O)cc1)C(N)=O)[C@@H](C)O)C(C)C
- Ki: 3.83 nM

B5: Compound 141 (peptide)
peptide: Isovaleryl-APEK([AEEA-AEEA-γGlu-C18 diacid])PEEAASPEELQRYYVSARHYYNWLTRQRY-NH2
SMILES: CC(C)CC(=O)N[C@@H](C)C(=O)N1CCC[C@H]1C(=O)N[C@@H](CCC(=O)O)C(=O)N[C@@H](CCCCNC(=O)COCCOCCNC(=O)COCCOCCNC(=O)CC[C@H](NC(=O)CCCCCCCCCCCCCCCCC(=O)O)C(=O)O)C(=O)N1CCC[C@H]1C(=O)N[C@@H](CCC(=O)O)C(=O)N[C@@H](CCC(=O)O)C(=O)N[C@@H](C)C(=O)N[C@@H](C)C(=O)N[C@@H](CO)C(=O)N1CCC[C@H]1C(=O)N[C@@H](CCC(=O)O)C(=O)N[C@@H](CCC(=O)O)C(=O)N[C@@H](CC(C)C)C(=O)N[C@@H](CCC(N)=O)C(=O)N[C@@H](CCCNC(=N)N)C(=O)N[C@@H](Cc1ccc(O)cc1)C(=O)N[C@@H](Cc1ccc(O)cc1)C(=O)N[C@H](C(=O)N[C@@H](CO)C(=O)N[C@@H](C)C(=O)N[C@@H](CCCNC(=N)N)C(=O)N[C@@H](Cc1c[nH]cn1)C(=O)N[C@@H](Cc1ccc(O)cc1)C(=O)N[C@@H](Cc1ccc(O)cc1)C(=O)N[C@@H](CC(N)=O)C(=O)N[C@@H](Cc1c[nH]c2ccccc12)C(=O)N[C@@H](CC(C)C)C(=O)N[C@H](C(=O)N[C@@H](CCCNC(=N)N)C(=O)N[C@@H](CCC(N)=O)C(=O)N[C@@H](CCCNC(=N)N)C(=O)N[C@@H](Cc1ccc(O)cc1)C(N)=O)[C@@H](C)O)C(C)C
- Ki: 3.12 nM

B6: Compound 136 (peptide)
peptide: Isovaleryl-APEK([AEEA-AEEA-γGlu-C18 diacid])PEADSSPEELQRYYVSLRHYYNWLTRQRY-NH2
SMILES: CC(C)CC(=O)N[C@@H](C)C(=O)N1CCC[C@H]1C(=O)N[C@@H](CCC(=O)O)C(=O)N[C@@H](CCCCNC(=O)COCCOCCNC(=O)COCCOCCNC(=O)CC[C@H](NC(=O)CCCCCCCCCCCCCCCCC(=O)O)C(=O)O)C(=O)N1CCC[C@H]1C(=O)N[C@@H](CCC(=O)O)C(=O)N[C@@H](C)C(=O)N[C@@H](CC(=O)O)C(=O)N[C@@H](CO)C(=O)N[C@@H](CO)C(=O)N1CCC[C@H]1C(=O)N[C@@H](CCC(=O)O)C(=O)N[C@@H](CCC(=O)O)C(=O)N[C@@H](CC(C)C)C(=O)N[C@@H](CCC(N)=O)C(=O)N[C@@H](CCCNC(=N)N)C(=O)N[C@@H](Cc1ccc(O)cc1)C(=O)N[C@@H](Cc1ccc(O)cc1)C(=O)N[C@H](C(=O)N[C@@H](CO)C(=O)N[C@@H](CC(C)C)C(=O)N[C@@H](CCCNC(=N)N)C(=O)N[C@@H](Cc1c[nH]cn1)C(=O)N[C@@H](Cc1ccc(O)cc1)C(=O)N[C@@H](Cc1ccc(O)cc1)C(=O)N[C@@H](CC(N)=O)C(=O)N[C@@H](Cc1c[nH]c2ccccc12)C(=O)N[C@@H](CC(C)C)C(=O)N[C@H](C(=O)N[C@@H](CCCNC(=N)N)C(=O)N[C@@H](CCC(N)=O)C(=O)N[C@@H](CCCNC(=N)N)C(=O)N[C@@H](Cc1ccc(O)cc1)C(N)=O)[C@@H](C)O)C(C)C
- Ki: 0.89 nM

More lines, in order of falling Ki, values ahead:

- Ki: 1.42 nM
B4: Compound 138 (peptide)
peptide: Isovaleryl-APAK([AEEA-AEEA-γGlu-C18 diacid])PEEDASPEELQQYYVSLRHYYNWLTRQRY-NH2
SMILES: CC(C)CC(=O)N[C@@H](C)C(=O)N1CCC[C@H]1C(=O)N[C@@H](C)C(=O)N[C@@H](CCCCNC(=O)COCCOCCNC(=O)COCCOCCNC(=O)CC[C@H](NC(=O)CCCCCCCCCCCCCCCCC(=O)O)C(=O)O)C(=O)N1CCC[C@H]1C(=O)N[C@@H](CCC(=O)O)C(=O)N[C@@H](CCC(=O)O)C(=O)N[C@@H](CC(=O)O)C(=O)N[C@@H](C)C(=O)N[C@@H](CO)C(=O)N1CCC[C@H]1C(=O)N[C@@H](CCC(=O)O)C(=O)N[C@@H](CCC(=O)O)C(=O)N[C@@H](CC(C)C)C(=O)N[C@@H](CCC(N)=O)C(=O)N[C@@H](CCC(N)=O)C(=O)N[C@@H](Cc1ccc(O)cc1)C(=O)N[C@@H](Cc1ccc(O)cc1)C(=O)N[C@H](C(=O)N[C@@H](CO)C(=O)N[C@@H](CC(C)C)C(=O)N[C@@H](CCCNC(=N)N)C(=O)N[C@@H](Cc1c[nH]cn1)C(=O)N[C@@H](Cc1ccc(O)cc1)C(=O)N[C@@H](Cc1ccc(O)cc1)C(=O)N[C@@H](CC(N)=O)C(=O)N[C@@H](Cc1c[nH]c2ccccc12)C(=O)N[C@@H](CC(C)C)C(=O)N[C@H](C(=O)N[C@@H](CCCNC(=N)N)C(=O)N[C@@H](CCC(N)=O)C(=O)N[C@@H](CCCNC(=N)N)C(=O)N[C@@H](Cc1ccc(O)cc1)C(N)=O)[C@@H](C)O)C(C)C

- Ki: 1.17 nM
B1: Compound 134 (peptide)
peptide: Isovaleryl-APEK([AEEA-AEEA-γGlu-C18 diacid])PEEDASPEEIQRYYTELRHYYNWLTRQRY-NH2
SMILES: CC[C@H](C)[C@H](NC(=O)[C@H](CCC(=O)O)NC(=O)[C@H](CCC(=O)O)NC(=O)[C@@H]1CCCN1C(=O)[C@H](CO)NC(=O)[C@H](C)NC(=O)[C@H](CC(=O)O)NC(=O)[C@H](CCC(=O)O)NC(=O)[C@H](CCC(=O)O)NC(=O)[C@@H]1CCCN1C(=O)[C@H](CCCCNC(=O)COCCOCCNC(=O)COCCOCCNC(=O)CC[C@H](NC(=O)CCCCCCCCCCCCCCCCC(=O)O)C(=O)O)NC(=O)[C@H](CCC(=O)O)NC(=O)[C@@H]1CCCN1C(=O)[C@H](C)NC(=O)CC(C)C)C(=O)N[C@@H](CCC(N)=O)C(=O)N[C@@H](CCCNC(=N)N)C(=O)N[C@@H](Cc1ccc(O)cc1)C(=O)N[C@@H](Cc1ccc(O)cc1)C(=O)N[C@H](C(=O)N[C@@H](CCC(=O)O)C(=O)N[C@@H](CC(C)C)C(=O)N[C@@H](CCCNC(=N)N)C(=O)N[C@@H](Cc1c[nH]cn1)C(=O)N[C@@H](Cc1ccc(O)cc1)C(=O)N[C@@H](Cc1ccc(O)cc1)C(=O)N[C@@H](CC(N)=O)C(=O)N[C@@H](Cc1c[nH]c2ccccc12)C(=O)N[C@@H](CC(C)C)C(=O)N[C@H](C(=O)N[C@@H](CCCNC(=N)N)C(=O)N[C@@H](CCC(N)=O)C(=O)N[C@@H](CCCNC(=N)N)C(=O)N[C@@H](Cc1ccc(O)cc1)C(N)=O)[C@@H](C)O)[C@@H](C)O

— US20210139548A1 (published 2021)
